{
  "source": "patent US20210177983A1",
  "target": "TNF-α (UniProt P01375)",
  "sequence (P01375 77-233 limits assumed)": "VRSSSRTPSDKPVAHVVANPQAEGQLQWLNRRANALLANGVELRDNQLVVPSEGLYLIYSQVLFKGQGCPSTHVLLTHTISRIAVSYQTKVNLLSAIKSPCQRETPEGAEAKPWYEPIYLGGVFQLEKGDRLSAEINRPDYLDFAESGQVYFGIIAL",
  "test": "cell-based or functional assay",
  "data": [
    {"substance": "TNF-R2 scCLCH1-Fc (Fc fusion)", "values": [
      {"measurement": "IC50 of inhibition of activation of the SEAP reporter gene in HEK-Blue TNF-α cells (235 pM TNF-α)", "value": 51, "unit": "pM"}
    ]}
  ]
}
